Columns and labels:
Assay in all cases: EMSA
Conditions in all cases: apparent Kd; RNA of Fig S1f not named, assumed U1; EMSA: 10 nM labeled RNA, 2-fold protein dilutions up to 10 uM, 2 h on ice, 1% TBE-agarose, 50 V, 4 C; binding buffer not stated (protein elution buffer 150 mM …)
[1] = system: INTS10;INTS13;INTS14 (human?;human?;human?)
[2] = system: INTS4;INTS9;INTS11 (human?;human?;human?)
INTS5;INTS8 = system: INTS5;INTS8

In the case of U1 pre-snRNA stem-loop 4 with 3' box, the Kd [1] is reported as 780 nM, the Kd [2] is reported as 820 nM and the Kd (INTS5;INTS8) is reported as 3100 nM.

— article PMC7980224
